Experimental data taken from patent US7985835B2, “Bioactive peptides and peptide derivatives of parathyroid hormone (PTH) and parathyroid hormone-related peptide (PTHrP)” (The General Hospital Corporation, priority 1998, dated 2011).
“Also recorded” adds a separate entry of the source. Blank lines part the entries; values can stand above or below the substance they belong to. Ends that are not written are not given here.

Experiments:
[1] = biological target: T1, human PTH-1 receptor (Homo sapiens, UniProt Q03431); test: cAMP in LLC-PK1 cells stably transfected with the human PTH-1 receptor (LLC-B7 cells); assay type: cell-based; design: expressed in transfected cells
T1 sequence (Q03431 27-593): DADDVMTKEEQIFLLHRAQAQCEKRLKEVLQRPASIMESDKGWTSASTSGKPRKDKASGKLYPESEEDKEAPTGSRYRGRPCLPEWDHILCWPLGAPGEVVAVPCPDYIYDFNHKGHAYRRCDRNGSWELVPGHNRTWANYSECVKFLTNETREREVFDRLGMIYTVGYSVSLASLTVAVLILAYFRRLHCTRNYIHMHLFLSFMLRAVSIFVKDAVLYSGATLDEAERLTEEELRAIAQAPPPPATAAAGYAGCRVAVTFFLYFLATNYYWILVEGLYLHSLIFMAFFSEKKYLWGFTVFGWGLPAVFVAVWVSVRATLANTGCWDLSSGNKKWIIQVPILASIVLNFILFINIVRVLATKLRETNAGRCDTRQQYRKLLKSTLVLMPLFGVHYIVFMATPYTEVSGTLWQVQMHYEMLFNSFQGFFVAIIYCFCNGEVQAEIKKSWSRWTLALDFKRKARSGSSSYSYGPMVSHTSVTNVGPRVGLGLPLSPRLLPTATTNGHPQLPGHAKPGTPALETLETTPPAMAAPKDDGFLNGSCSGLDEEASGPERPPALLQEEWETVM
Experimental: FIG. 3. cAMP dose response curves of short amino-terminal PTH analogs in LLC-PK1 cells stably transfected with the human PTH-1 receptor (LLC-B7 cells). LLC-B7 cells in 24 plates were treated with the indicated peptides for 60 mins at 21° C., and then intracellular cAMP levels were measured. All PTH peptides shown are based on the rat PTH sequence and are carboxy-terminally amidated.
FIG. 7. cAMP activity of [Ile5]PTHrP(1-14). LLC-B7 cells were treated with the indicated peptide ligand, each at 100 μM, and then intracellular cAMP levels were measured.
Intracellular cAMP accumulation was measured as described previously (Abou-Samra et al., J. Biol. Chem. 262:1129, 1986). Cells in 24-well plates were rinsed with culture medium containing 0.1% BSA and 2 mM IBMX. The cells were then incubated with compounds of SEQ ID NO: 1 or derivatives thereof for 60 min. at 21° C. […] Intracellular cAMP was extracted by thawing the cells in 1 ml of 50 mM HCl and analyzed by a specific radioimmunoassay using an anti-cAMP antibody (e.g., Sigma, St. Louis, Mo.). […] The supernatant was removed and the bound radioactivity was counted in a gamma-counter (Micromedic). […]
The analysis extends to the PTHrP(1-14) sequence as well. […] LLC-B7 cells were treated with the indicated peptide ligand, each at 100 μM, and then intracellular cAMP levels were measured.

[2] = biological target: T1, human PTH-1 receptor; test: cAMP accumulation in COS-7 cells expressing the cloned human PTH-1 receptor; assay type: cell-based; design: expressed in transfected cells; host or cells: COS-7; conditions: for stimulation of cAMP formation: COS-7 cells expressing cloned human PTH-1 receptor, peptides at 67 μM, 30 minutes at 21° C.
Experimental: FIG. 1. Bioactivity of amino-terminal and carboxy-terminal fragments of PTH(1-34). Fragments of parathyroid hormone were synthesized by chemical methods and purified by reverse-phase HPLC. Peptides were tested for the ability to stimulate cAMP accumulation in COS-7 cells expressing the cloned human PTH-1 receptor. PTH(1-34) was tested at a dose of 1 μM, other peptides were tested at 67 μM. Peptides were tested in duplicate (±s.e.m.) at a dose of 67 μM. The cAMP in control untreated cells is indicated by Bsl. Cells were treated for 30 minutes at 21° C.
FIG. 2. Alanine-scan of PTH(1-14). Shown are the bioactivities of 14 different PTH(1-14) derivatives, each having a different amino acid of the native sequence (shown at bottom of figure) (SEQ ID NO:14) replaced by alanine. Peptides were chemically synthesized, purified and tested for ability to stimulate cAMP formation in COS-7 cells expressing the cloned human PTH-1 receptor. Peptides were tested in duplicate (±s.e.m.) at a dose of 67 μM. As a control, untreated cells, indicated by basal, were measured. The PTH(1-14) containing alanine at position 1 was used as the wild-type reference. Cells were stimulated for 30 minutes at 21° C.
Intracellular cAMP accumulation was measured as described previously (Abou-Samra et al., J. Biol. Chem. 262:1129, 1986). Cells in 24-well plates were rinsed with culture medium containing 0.1% BSA and 2 mM IBMX. The cells were then incubated with compounds of SEQ ID NO: 1 or derivatives thereof for 60 min. at 21° C. The supernatant was removed and the cells immediately frozen by placing the whole plate in dry ice powder. Intracellular cAMP was extracted by thawing the cells in 1 ml of 50 mM HCl and analyzed by a specific radioimmunoassay using an anti-cAMP antibody (e.g., Sigma, St. Louis, Mo.). A cAMP analog (2′-O-monosuccinyl-adenosine 3′:5′-cyclic monophosphate tyrosyl methyl ester, obtained from Sigma) which was used a tracer for cAMP was iodinated by the chloramine T method. Free iodine was removed by adsorbing the iodinated cAMP analog onto a C18 Sep-pak cartridge (Waters, Milford, Mass.). After washing with dH20, the iodinated cAMP analog was eluted from the Sep-pak Cartridge with 40% acetonitrille (ACN) and 0.1% trifluoroacetic acid (TFA). The iodinated cAMP analog was lyophilized, reconstituted in 1 ml 0.1% TFA, and injected into a C18 reverse phase HPLC column (Waters). The column was equilibrated with 10% ACN in 0.1% TFA, and eluted with gradient of 10-30% ACN in 0.1% TFA. This allows separation of the mono-iodinated cAMP analog from the non-iodinated cAMP analog. The tracer is stable for up to 4 months when stored at −20° C. […] The supernatant was removed and the bound radioactivity was counted in a gamma-counter (Micromedic). […]

[3] = system: untransfected LLC-PK1 cells; test: cAMP dose response in LLC-B7 cells versus untransfected LLC-PK1 cells; assay type: cell-based, porcine; conditions: LLC-B7 cells vs untransfected LLC-PK1 cells; FIG. 4
Experimental: FIG. 4. cAMP dose response curves of PTH(1-14) in LLC-B7 cells and in untransfected LLC-PK1 cells. PTH(1-14) and PTH(1-34) control peptides were tested as in FIG. 3.
(§1) PTH(1-14) specificity was also tested using the porcine renal cell line LLC-PK1, either untransfected or stably transfected with the human PTH-1 receptor, the LLC-B7 cell line.

[4] = biological target: T2, rat secretin receptor (rSR) (Rattus norvegicus, UniProt P23811); test: cAMP in COS-7 cells transfected with rat secretin receptor (specificity); assay type: cell-based; conditions: COS-7 cells transfected with rSR; FIG. 6
T2 construct: expressed in transfected cells; host or cells: COS-7
Experimental: FIG. 6. Specificity of PTH(1-14). […] Thus, the response to PTH(1-14) is dependent on the presence of the PTH-1 receptor.
as §1

[5] = system: PTH; conditions: in vitro; cited from earlier work
[6] = system: AC; conditions: cited from earlier work
[7] = system: the receptor; conditions: cited from earlier work
[8] = biological target: T3, rat PTH-1 receptor (Rattus norvegicus, UniProt P25961); conditions: CHO cells expressing cloned rat PTH-1 receptor; cited from earlier work
T3 sequence (P25961 27-591): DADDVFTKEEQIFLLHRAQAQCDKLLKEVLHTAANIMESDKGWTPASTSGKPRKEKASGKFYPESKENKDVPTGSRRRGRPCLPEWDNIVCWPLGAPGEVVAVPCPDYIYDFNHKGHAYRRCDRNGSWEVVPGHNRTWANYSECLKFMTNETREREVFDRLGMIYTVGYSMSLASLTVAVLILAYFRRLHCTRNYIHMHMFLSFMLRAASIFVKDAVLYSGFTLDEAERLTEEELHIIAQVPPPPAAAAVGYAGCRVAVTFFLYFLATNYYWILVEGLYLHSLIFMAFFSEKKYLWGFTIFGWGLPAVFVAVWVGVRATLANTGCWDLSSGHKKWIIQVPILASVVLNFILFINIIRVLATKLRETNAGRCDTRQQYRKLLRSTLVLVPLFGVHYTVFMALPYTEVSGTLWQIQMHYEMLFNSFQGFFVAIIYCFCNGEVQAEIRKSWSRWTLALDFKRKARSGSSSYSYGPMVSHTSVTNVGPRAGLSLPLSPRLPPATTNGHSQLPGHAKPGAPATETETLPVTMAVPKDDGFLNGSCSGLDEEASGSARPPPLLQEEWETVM

[9] = system: rat renal membranes; conditions: cited from earlier work

T2 sequence (P23811 26-449): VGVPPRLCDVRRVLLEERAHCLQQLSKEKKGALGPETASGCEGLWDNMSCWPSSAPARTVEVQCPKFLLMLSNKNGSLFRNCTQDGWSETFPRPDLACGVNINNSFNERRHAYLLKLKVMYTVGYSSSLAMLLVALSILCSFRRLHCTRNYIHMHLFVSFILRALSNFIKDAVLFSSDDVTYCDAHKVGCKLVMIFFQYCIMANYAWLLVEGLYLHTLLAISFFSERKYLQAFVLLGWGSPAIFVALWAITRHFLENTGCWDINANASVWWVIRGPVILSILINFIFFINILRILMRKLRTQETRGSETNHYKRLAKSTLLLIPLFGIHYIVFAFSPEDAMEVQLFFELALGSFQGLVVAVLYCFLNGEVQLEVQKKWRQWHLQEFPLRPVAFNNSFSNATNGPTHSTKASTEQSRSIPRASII

Substance: AVSEIQLLHDKGKS [[Ile^5] PTHrP(1-14)]
cAMP activity, potency relative to native PTHrP(1-14) ([1]; each peptide at 100 μM, FIG. 7): enhanced potency, relative to native PTHrP(1-14)

Substance: AVSEIQLMH [[Ala^1] PTH(1-9)]
stimulation of cAMP formation ([2]; FIG. 1): small cAMP response; also recorded: exhibits some biological activity

activity relative to native PTH(1-34) ([2]; FIG. 1, PTH(1-34) at 1 μM, other peptides at 67 μM): weaker than native PTH(1-34)
Substance: AlaValSerGluIleGlnLeuMetHisAsnLeuGlyLysHis (AVSEIQLMHNLGKH-NH2) [[Ala^1] PTH(1-14)]
bioactivity relative to native PTH(1-14) ([2]; Ser1 to Ala substitution, compared with native PTH(1-14) peptide): measurable increase in bioactivity over the background level of bioactivity of the native PTH(1-14) peptide

cAMP dose response activity ([1]; 60 mins at 21° C., rat PTH sequence, carboxy-terminally amidated, FIG. 3): only very weak activity
Substance: PTH(1-13): PTH variant truncated by one amino acid at the C-terminus, residues 1-13; rat PTH sequence (AVSEIQLMHNLGK)

Substance: PTH(1-14): 1-14 fragment of PTH; peptides in FIG. 3 are based on the rat PTH sequence (alanine at position 1) (SVSEIQLMHNLGKH)
dependence of cAMP response on PTH-1 receptor [3]: dependent on PTH-1 receptor expression; also recorded: completely dependent on the presence of the PTH-1 receptor | stimulation of cAMP in cells expressing rat secretin receptor [4]: inactive; also recorded: does not stimulate cAMP

Substance: PTH(3-34): synthetic analog of bovine PTH (SEIQFMHNLGKHLSSMERVEWLRKKLQDVHNF; Parathyroid hormone; UniProt P01268 34-65, looked up, fragment)
PTH antagonist activity [5]: potent PTH antagonist in vitro

stimulation of cAMP formation ([2]; FIG. 1): inactive
Substance: PTH(15-31): carboxy-terminal fragment of PTH(1-34) (LNSMERVEWLRKKLQDV; Parathyroid hormone; UniProt P01270 46-62, looked up, fragment) [reference compound]

Substance: PTH(15-34): PTH(15-34) fragment
activation of AC [6]: does not activate AC | receptor binding [7]: binds weakly

Substance: PTHrP(1-16): short NH2-terminal PTHrP peptide investigated previously (AVSEHQLLHDKGKSIQ; Parathyroid hormone-related protein; UniProt P12272 37-52, looked up, fragment)
AC activity [8]: inactive

Substance: bPTH(1-12): short NH2-terminal PTH peptide investigated previously (AVSEIQFMHNLG; Parathyroid hormone; UniProt P01268 32-43, looked up, fragment)
adenylyl cyclase activity [9]: inactive

Substance: secretin (1-27): control native secretin (1-27) [reference compound]
stimulation of cAMP in cells expressing rat secretin receptor [4]: responds fully
